Source: article doi:10.1101/2021.08.11.455960

How the values were obtained:
[1] = molecular target: human angiotensin-converting enzyme 2 ectodomain (human) (UniProt Q9BYF1); test: SPR
[2] = molecular target: Rhinolophus affinis angiotensin-converting enzyme 2 ectodomain (Rhinolophus affinis); test: SPR

Chain of UniProt Q9BYF1 (Q9BYF1 19-615): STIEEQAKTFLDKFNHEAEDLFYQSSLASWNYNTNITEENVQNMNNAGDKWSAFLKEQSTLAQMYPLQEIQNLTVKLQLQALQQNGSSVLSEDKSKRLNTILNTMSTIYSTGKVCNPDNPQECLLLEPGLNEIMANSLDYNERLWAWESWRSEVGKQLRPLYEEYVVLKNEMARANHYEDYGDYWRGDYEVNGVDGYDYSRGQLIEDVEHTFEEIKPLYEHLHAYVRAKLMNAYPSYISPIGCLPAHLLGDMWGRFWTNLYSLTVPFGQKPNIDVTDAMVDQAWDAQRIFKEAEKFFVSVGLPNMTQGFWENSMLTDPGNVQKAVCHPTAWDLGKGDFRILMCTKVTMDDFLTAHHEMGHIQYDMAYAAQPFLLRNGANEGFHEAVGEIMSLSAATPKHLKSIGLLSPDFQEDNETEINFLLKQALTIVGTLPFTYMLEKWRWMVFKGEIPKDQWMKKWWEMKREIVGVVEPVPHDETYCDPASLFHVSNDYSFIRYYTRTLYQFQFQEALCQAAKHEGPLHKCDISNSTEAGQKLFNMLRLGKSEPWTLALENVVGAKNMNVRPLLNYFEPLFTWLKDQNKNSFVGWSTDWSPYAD

Q: What does the source list for “RaTG13 spike receptor binding domain (domain or fragment)”?
A: Kd [1]: 21 nM; Kd [2]: 12 nM
